Test results reported in the supplement of paper PMC9170038.

Tested on: MS2 coat protein
Test: apparent KD of MS2 coat protein; designed switch direction (-1 OFF switch, 1 ON switch): 1; higher = weaker reporter binding
In short: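 Three titration conditions were used: no input, 200 uM small-molecule ligand, and an oligonucleotide input. In each, SNAP-549-labelled MS2 coat protein was raised from 0.7 or 1.5 nM, doubling, to 3 µM over designed RNA switches transcribed on Illumina chips by stalled E. coli RNA polymerase. Curve fits of normalised cluster fluorescence gave values whose per-design median over clusters is the apparent KD.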

[1] = input ligand: microRNA oligo, concentration not stated
[2] = Eterna round: R95, input ligand: FMN 200 uM
[3] = Eterna round: R95, input ligand: microRNA oligo, concentration not stated
[4] = Eterna round: R95, input ligand: none

“UGCUAGUGGGUAGGAUAUUUAGGAUAUGGGAAAGACUAAGUCUGUAGGUCACCUAACCCAGAAGGAGAGAAGGACCAUUCAGCU [pwkr ssNG2 2FMN + F9.27] (Eterna round: R96, puzzle: Same State NG 2)” was tested, and the “apparent KD of MS2 coat protein” value (input ligand: FMN 200 uM) was 30.3 nM, the “apparent KD of MS2 coat protein” value [1] was 4.33 nM and the “apparent KD of MS2 coat protein” value (input ligand: none) was 28.5 nM.
“UGCUUCGUGUAAGGAUAUGCAGCCGUUUCGGCUGCAGAAGGUACUAUAAUACAUGAGGAUCACCCAUGUCUCUCGCUUUGCGGG [salish99_SSng1_r04_304] (Eterna round: R96, puzzle: Same State NG 1)” was tested, and the “apparent KD of MS2 coat protein” value [1] was 43.4 nM.
In the case of “UGGAAGAAUUAAGGAUAUCGAGUACAUAUGUUUAACAUGAGGAUCACCCAUGUGGGUUGCGGUAUCGAGAAGGUAAAUUACAAG [Mat - same State NG 2 - JL mod - D61] (Eterna round: R96, puzzle: Same State NG 2)”, the “apparent KD of MS2 coat protein” value (input ligand: FMN 200 uM) is reported as 44.6 nM, the “apparent KD of MS2 coat protein” value [1] is reported as 40.5 nM and the “apparent KD of MS2 coat protein” value (input ligand: none) is reported as 44 nM.
For “UGGCUCAGACGAGGAUAUAUGUGGUCACAUGAGGAUCACCCAUGUCUCGAGCUUCGGCUCGAGGCAUAGAAGGUGUCUGAGCCA [SSNG2/5-C2] (Eterna round: R96, puzzle: Same State NG 2)”, the “apparent KD of MS2 coat protein” value (input ligand: FMN 200 uM) was 227 nM, the “apparent KD of MS2 coat protein” value [1] was 16 nM and the “apparent KD of MS2 coat protein” value (input ligand: none) was 33.9 nM.
“UGGCUGGUGCUAGGAUAUGCAUGAGGCCUCCUCGUAGAAGGAGCACGACAUGAGGAUCACCCAUGUGGCCGUCCGUAGACGGCU [salish99_SSNG1_r04_013] (Eterna round: R96, puzzle: Same State NG 1)” was tested, and the “apparent KD of MS2 coat protein” value (input ligand: FMN 200 uM) was 62.5 nM, the “apparent KD of MS2 coat protein” value [1] was 35.9 nM and the “apparent KD of MS2 coat protein” value (input ligand: none) was 61.2 nM.
With “UGGUAACAUGAGGAUCACCCAUGUCAAAUGAAUCGAGGAUAUGGGAAUUAAUAAUAUAAACUAGAAGGCGAAUUUG [Altered State 1-6 - Jieux - Same State 1] (puzzle: Same State 1)” the “apparent KD of MS2 coat protein” value [2] was 85.6 nM, the “apparent KD of MS2 coat protein” value [3] was 123 nM and the “apparent KD of MS2 coat protein” value [4] was 52.7 nM.
For “UGGUACAUGGGAGGAUAUCCUCAGGAGACAUGAGGAUCACCCAUGUAAUUAAAGCCGAAAGGCAUGGAGAAGGCCCAUGUACCU [JL SSNG1 3.79] (Eterna round: R96, puzzle: Same State NG 2)”, the “apparent KD of MS2 coat protein” value (input ligand: FMN 200 uM) was 20.1 nM, the “apparent KD of MS2 coat protein” value [1] was 172 nM and the “apparent KD of MS2 coat protein” value (input ligand: none) was 131 nM.
“UGUAAACAUGAGGAUCACCCAUGUAAUAUAAUGGGAGGAUAUCUGAAUUAAUUAAAUUAAGGAGAAGGCCUAAUGG [Mat - Same State 1 - Mod of Eli - D48] (puzzle: Same State 1)” was tested, and the “apparent KD of MS2 coat protein” value [2] was 79.8 nM, the “apparent KD of MS2 coat protein” value [3] was 995 nM and the “apparent KD of MS2 coat protein” value [4] was 563 nM.
In the case of “UGUUAACAUGAGGAUCACCCAUGUCAAAUGAAUCGAGGAUAUGGAAAGUAAUAAGAUGAACUAGAAGGCGAAGUUG [Altered State 1-18 - Jieux - Same State 1] (puzzle: Same State 1)”, the “apparent KD of MS2 coat protein” value [2] is reported as 46.2 nM, the “apparent KD of MS2 coat protein” value [3] is reported as 87.9 nM and the “apparent KD of MS2 coat protein” value [4] is reported as 86.7 nM.
With “UGUUGUAUUACAGGAUAUCUAGCAUUUUUAUUUAGAGAAGGGUAUUCACAUGAGGAUCACCCAUGUAUAUACGAGGAAGUUGUG [JMF's solution 32] (Eterna round: R96, puzzle: Same State NG 1)” the “apparent KD of MS2 coat protein” value (input ligand: FMN 200 uM) was 54.9 nM, the “apparent KD of MS2 coat protein” value [1] was 42.1 nM and the “apparent KD of MS2 coat protein” value (input ligand: none) was 51.9 nM.
For “UGUUGUAUUACAGGAUAUCUAGUAUUUUCAUUUAGAGAAGGGUAUUCACAUGAGGAUCACCCAUGUAUAUACGAGGAAGUUGUG [JMF's solution 45] (Eterna round: R96, puzzle: Same State NG 1)”, the “apparent KD of MS2 coat protein” value [1] was 34.7 nM.
For “UGUUGUAUUACAGGAUAUCUAUAAUUUUUAUUUAGAGAAGGGUAUUCACAUGAGGAUCACCCAUGUAUAUACGAGGAAGUUGUG [JMF's solution 10] (Eterna round: R96, puzzle: Same State NG 1)”, the “apparent KD of MS2 coat protein” value [1] was 31.1 nM.
For “UGUUGUAUUACAGGAUAUCUAUGAUUUUAAUUUAGAGAAGGGUAUUCACAUGAGGAUCACCCAUGUAUAUACGAGGAAGUUGUG [JMF's solution 63] (Eterna round: R96, puzzle: Same State NG 1)”, the “apparent KD of MS2 coat protein” value [1] was 40.2 nM.
With “UGUUGUAUUACAGGAUAUCUAUGAUUUUUAUUAAGAGAAGGGUAUUCACAUGAGGAUCACCCAUGUAUAUACGAGGAAGUUGUG [JMF's solution 70] (Eterna round: R96, puzzle: Same State NG 1)” the “apparent KD of MS2 coat protein” value [1] was 25.6 nM.
In the case of “UGUUGUAUUACAGGAUAUCUAUUAUUUUUAAUUAGAGAAGGGUAUUCACAUGAGGAUCACCCAUGUAUAUACGAGGAAGUUGUG [JMF's solution 25] (Eterna round: R96, puzzle: Same State NG 1)”, the “apparent KD of MS2 coat protein” value [1] is reported as 27.5 nM.
In the case of “UGUUUGUUGUGAGGAUAUACAUACACCUUACAUGAGGAUCACCCAUGUUGUUACCUUGAUAGUUAGUAGAAGGCACUUGGUUAU [JR_SSNG2_Sub046] (Eterna round: R96, puzzle: Same State NG 2)”, the “apparent KD of MS2 coat protein” value (input ligand: FMN 200 uM) is reported as 243 nM, the “apparent KD of MS2 coat protein” value [1] is reported as 140 nM and the “apparent KD of MS2 coat protein” value (input ligand: none) is reported as 261 nM.
For “UGUUUGUUGUGAGGAUAUACAUACACCUUACAUGAGGAUCACCCAUGUUUUAAUUUUGAUAGUUAGUAGAAGGCACAUGAUUAU [JR_SSNG2_Sub044] (Eterna round: R96, puzzle: Same State NG 2)”, the “apparent KD of MS2 coat protein” value (input ligand: FMN 200 uM) was 21.3 nM, the “apparent KD of MS2 coat protein” value [1] was 28.1 nM and the “apparent KD of MS2 coat protein” value (input ligand: none) was 46.5 nM.
